Experimental data reported in patent US20250026827A1 (Alector, published 2025).

T1: mouse SIRPα on cells (mouse, UniProt P97797 32-513)
T1 construct: whole, on cells
T1 sequence (looked up): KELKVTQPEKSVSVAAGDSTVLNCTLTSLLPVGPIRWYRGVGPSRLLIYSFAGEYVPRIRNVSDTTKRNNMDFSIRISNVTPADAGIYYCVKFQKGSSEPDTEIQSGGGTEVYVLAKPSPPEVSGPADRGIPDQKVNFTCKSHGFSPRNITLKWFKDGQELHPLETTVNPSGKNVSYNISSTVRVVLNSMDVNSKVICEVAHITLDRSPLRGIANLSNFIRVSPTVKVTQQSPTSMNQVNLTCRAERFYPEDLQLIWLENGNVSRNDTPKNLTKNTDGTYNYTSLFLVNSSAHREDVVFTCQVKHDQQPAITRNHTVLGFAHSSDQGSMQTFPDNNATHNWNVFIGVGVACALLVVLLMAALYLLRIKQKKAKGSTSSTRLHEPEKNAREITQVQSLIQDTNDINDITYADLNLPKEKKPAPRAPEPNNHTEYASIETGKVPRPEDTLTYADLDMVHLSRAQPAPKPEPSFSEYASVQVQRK

T2: mouse SIRPβ1 on CHO cells (mouse)
T2 construct: Whole entry
T2 chain: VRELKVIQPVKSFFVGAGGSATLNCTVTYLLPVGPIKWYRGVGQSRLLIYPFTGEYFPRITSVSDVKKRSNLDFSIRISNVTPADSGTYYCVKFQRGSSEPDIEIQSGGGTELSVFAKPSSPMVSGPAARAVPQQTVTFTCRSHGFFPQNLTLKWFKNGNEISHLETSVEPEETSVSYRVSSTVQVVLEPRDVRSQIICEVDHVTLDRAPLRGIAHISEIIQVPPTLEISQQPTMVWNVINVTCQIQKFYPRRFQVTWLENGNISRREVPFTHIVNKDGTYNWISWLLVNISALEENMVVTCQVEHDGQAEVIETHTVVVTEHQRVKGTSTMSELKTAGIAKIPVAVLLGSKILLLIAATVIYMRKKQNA

T3: mouse SIRPα D1-Fc (mouse, UniProt P97797 32-150, limits assumed)
T3 construct: domain: D1
T3 sequence (looked up): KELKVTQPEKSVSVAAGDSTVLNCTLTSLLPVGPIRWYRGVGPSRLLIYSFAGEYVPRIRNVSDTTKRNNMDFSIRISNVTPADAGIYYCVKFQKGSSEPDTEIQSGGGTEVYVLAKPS

B1: SB-44 (antibody, V domains shown)
VH: EVQLVESGGGLVQPGGSLRLSCAASGFTVSSNYMSWVRQAPGKGLEWVSVIYSGGDTYYADSVKGRFTISRDNSKNTLYLQMNSLRAEDTAVYYCAREGSSFWSGSAVSYYGMDVWGQGTTVTVSS
VL: DIQMTQSPSTLSASVGDRVTITCRASQSIGSWLAWYQQKPGKAPKLLIYKASSLESGVPSRFSGSGSGTEFTLTISSLQPDDFATYYCQEYGSYRTFGGGTKVEIK
notes: IgG
B2: SB-47 (antibody, V domains shown)
VH: QLQLQESGPGLVKPSETLSLTCTVSGGSISSSSYAWGWIRQPPGKGLEWIGSIYYSGSTYYNPSLKSRVTISVDTSKNQFSLKLSSVTAADTAVYYCARDLGHYDYWSGSRDYYYGMDVWGQGTTVTVSS
VL: DIQMTQSPSSLSASVGDRVTITCQASQDISNYLNWYQQKPGKAPKLLIYDASNLETGVPSRFSGSGSGTDFTFTISSLQPEDIATYYCQQADYFPITFGGGTKVEIK
notes: IgG
B3: SB-45 (antibody, V domains shown)
VH: QVQLQESGPGLVKPSETLSLTCAVSGYSISSGYYWAWIRQPPGKGLEWIGSIYHSGSTYYNPSLKSRVTISVDTSKNQFSLKLSSVTAADTAVYYCARDLSRGYAVSGMDVWGQGTTVTVSS
VL: VLTQSPGTLSLSPGERATLSCRASQSVSSSFLAWYQQKPGQAPRLLIYGASSRATGIPDRFSGSGSGTDFTLTISRLEPEDFAVYYCQQVVSVPTFGGGTKVEIK
notes: IgG
B4: SB-37 (antibody, V domains shown)
VH: QVQLVQSGAEVKKPGSSVKVSCKASGGTFSNYAISWVRQAPGQGLEWMGGIIPIFGTANYAQKFQGRVTITADESTSTAYMELSSLRSEDTAVYYCARSRWGASGYYYYMDVWGQGTMVTVSS
VL: EIVLTQSPATLSLSPGERATLSCRASQSVSSYLAWYQQKPGQAPRLLIYDASNRATGIPARFSGSGSGTDFTLTISSLEPEDFAVYYCQQRHTYPLTFGGGTKVEIK
notes: IgG
B5: SB-43 (antibody, V domains shown)
VH: QVQLQESGPGLVKPSETLSLTCAVSGYSISSGYYWAWIRQPPGKGLEWIGSIYHSGSTYYNPSLKSRVTISVDTSKNQFSLKLSSVTAADTAVYYCARDAPGYPMLGMDVWGQGTTVSVSS
VL: EIVLTQSPATLSLSPGERATLSCRASQSVSSYLAWYQQKPGQAPRLLIYDASKRATGIPARFSGSGSGTDFTLTISSLEPEDFAVYYCQQRFDFPITFGGGTKVEIK
notes: IgG
B6: SB-42 (antibody, V domains shown)
VH: QVQLVQSGAEVKKPGASVKVSCKASGYTFTSYGISWVRQAPGQGLEWMGWISAYNGNTNYAQKLQGRVTMTTDTSTSTAYMELRSLRSDDTAVYYCARGPGHYYVAGMDVWGQGTTVTVSS
VL: EIVMTQSPATLSVSPGERATITCRASQSISSYLNWYQQKPGKAPKLLIYSASSLQSGVPSRFSGSGSGTDFTLTISSLQPEDFATYYCQQGDSFPITFGGGTKVEIK
notes: IgG
B7: SB-38 (antibody, V domains shown)
VH: QVQLVQSGAEVKKPGASVKVSCKASGYTFTSYYMHWVRQAPGQGLEWMGIINPSGGSTSYAQKFQGRVTMTRDTSTSTVYMELSSLRSEDTAVYYCARESGTDFGTISYWGQGTLVTVSS
VL: DIQMTQSPSSVSASVGDRVTITCRASQGISSWLAWYQQKPGKAPKLLIYAASSLQSGVPSRFSGSGSGTDFTLTISSLQPEDFATYYCQQAVSYPITFGGGTKVEIK
notes: IgG
B8: SB-46 (antibody, V domains shown)
VH: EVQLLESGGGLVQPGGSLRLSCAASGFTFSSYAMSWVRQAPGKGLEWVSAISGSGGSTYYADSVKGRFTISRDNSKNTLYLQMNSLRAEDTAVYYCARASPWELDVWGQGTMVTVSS
VL: EIVLTQSPGTLSLSPGERATLSCRASQSVRSSYLAWYQQKPGQAPRLLIYGASSRATGIPDRFSGSGSGTDFTLTISRLEPEDFAVYYCQQLYSSPYTFGGGTKVEIK
notes: IgG
B9: SB-35 (antibody, V domains shown)
VH: QVQLVQSGAEVKKPGSSVKVSCKASGGTFSSYAISWVRQAPGQGLEWMGGIIPIFGTANYAQKFQGRVTITADESTSTAYMELSSLRSEDTAVYYCARGRPQSESYLLDYWGQGTLVTVSS
VL: not shown
notes: IgG

What was measured:
mouse SIRPα on cells [1] = molecular target: T1, mouse SIRPα on cells; assay: flow cytometry;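 on FOB: antibodies tested at 1 µg/ml for 30 min on ice against receptor-expressing cells, detected with a PE-labelled secondary antibody, read as mean fluorescence intensity relative to background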
[2] = molecular target: T2, mouse SIRPβ1 on CHO cells; assay: flow cytometry;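 on FOB: antibodies tested at 1 µg/ml for 30 min on ice against receptor-expressing cells, detected with a PE-labelled secondary antibody, read as mean fluorescence intensity relative to background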
human SIRPα on cells [3] = molecular target: T4, human SIRPα on cells (human, UniProt P78324 31-504); assay: flow cytometry;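 on FOB: antibodies tested at 1 µg/ml for 30 min on ice against receptor-expressing cells, detected with a PE-labelled secondary antibody, read as mean fluorescence intensity relative to background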
T4 construct: Whole entry

[4] = molecular target: T5, human SIRPβ1 domain 1 (D1) Fc fusion (human, UniProt O00241 30-148); assay: Octet, IgG avid
T5 construct: Made in HEK293/T cells with a heterologous signal peptide; also called Human SIRPβ1 D1-Fc; Human SIRPβ1-Fc; not shown: C-terminal human IgG1 Fc

mouse SIRPα on cells [5] = molecular target: T1, mouse SIRPα on cells; assay: flow cytometry; remark: listed apart in the source;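 on FOB: antibodies tested at 1 µg/ml for 30 min on ice against receptor-expressing cells, detected with a PE-labelled secondary antibody, read as mean fluorescence intensity relative to background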
[6] = molecular target: T2, mouse SIRPβ1 on CHO cells; assay: flow cytometry
[7] = molecular target: T6, human SIRPβ1 isoform 1 on cells (human, UniProt O00241 30-398); assay: flow cytometry
T6 construct: On CHO cells (low level), on BWZ/BW5147.G.1.4 cells (reporter cells co-express human DAP12) or on primary human myeloid cells; also called huSIRPβ1; BWZ-huSIRPβ1

human SIRPα on cells [8] = molecular target: T4, human SIRPα on cells; assay: flow cytometry; remark: listed apart in the source
mouse SIRPα D1-Fc = molecular target: T3, mouse SIRPα D1-Fc; assay: Octet
[9] = molecular target: T7, human SIRPα domain 1 (D1) Fc fusion (human, UniProt P78324 32-149); assay: Octet
T7 construct: also called human SIRPα D1-Fc; Human SIRPα Fc; not shown: C-terminal human IgG1 Fc

T5 sequence (O00241 30-148 limits assumed): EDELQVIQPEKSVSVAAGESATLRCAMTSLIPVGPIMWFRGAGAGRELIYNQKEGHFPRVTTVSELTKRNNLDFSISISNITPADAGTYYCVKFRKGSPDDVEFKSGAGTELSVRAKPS
T6 sequence (O00241 30-398): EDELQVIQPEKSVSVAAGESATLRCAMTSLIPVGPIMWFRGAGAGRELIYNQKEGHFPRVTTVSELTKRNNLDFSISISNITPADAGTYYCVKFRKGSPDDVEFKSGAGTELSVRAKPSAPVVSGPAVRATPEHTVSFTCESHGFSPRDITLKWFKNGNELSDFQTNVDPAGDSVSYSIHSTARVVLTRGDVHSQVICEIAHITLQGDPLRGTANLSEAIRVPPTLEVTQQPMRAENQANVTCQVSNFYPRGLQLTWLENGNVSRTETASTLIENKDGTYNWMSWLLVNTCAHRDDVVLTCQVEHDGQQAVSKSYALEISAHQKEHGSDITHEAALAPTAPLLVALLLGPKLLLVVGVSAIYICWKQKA

Binder | binding result (mouse SIRPα on cells [1]) | binding result [2] | binding result (human SIRPα on cells [3]) | Kd [4] [nM] | FOB (mouse SIRPα on cells [5]) [fold over background] | FOB [6] [fold over background] | FOB [7] [fold over background] | FOB (human SIRPα on cells [8]) [fold over background] | binding result (mouse SIRPα D1-Fc) | binding result [9]
B1 | no binding (tested: 1 ug/ml) | no binding (tested: 1 ug/ml) | no binding (tested: 1 ug/ml) | 18.9 | 1.2 | 1.5 | 2.8 | 2.9 | no binding (tested: 100 nM) | no binding (tested: 100 nM)
B2 | no binding (tested: 1 ug/ml) | no binding (tested: 1 ug/ml) | no binding (tested: 1 ug/ml) | 14.4 | 1.7 | 1.3 | 1.6 | 2.1 | no binding (tested: 100 nM) | no binding (tested: 100 nM)
B3 | no binding (tested: 1 ug/ml) | no binding (tested: 1 ug/ml) | no binding (tested: 1 ug/ml) | 13.9 | 1.2 | 1.4 | 8.5 | 2.5 | no binding (tested: 100 nM) | no binding (tested: 100 nM)
B4 | no binding (tested: 1 ug/ml) | no binding (tested: 1 ug/ml) | no binding (tested: 1 ug/ml) | 7.5 | 1 | 1.2 | 3.8 | 2.2 | no binding (tested: 100 nM) | no binding (tested: 100 nM)
B5 | no binding (tested: 1 ug/ml) | no binding (tested: 1 ug/ml) | no binding (tested: 1 ug/ml) | 12.3 | 1.6 | 1.1 | 2.8 | 2.3 | no binding (tested: 100 nM) | no binding (tested: 100 nM)
B6 | no binding (tested: 1 ug/ml) | no binding (tested: 1 ug/ml) | no binding (tested: 1 ug/ml) | 12.3 | 1.2 | 1.2 | 3.3 | 2.7 | no binding (tested: 100 nM) | no binding (tested: 100 nM)
B7 | no binding (tested: 1 ug/ml) | no binding (tested: 1 ug/ml) | no binding (tested: 1 ug/ml) | 7.33 | 1.1 | 1.3 | 1.5 | 2.1 | no binding (tested: 100 nM) | no binding (tested: 100 nM)
B8 | no binding (tested: 1 ug/ml) | no binding (tested: 1 ug/ml) | no binding (tested: 1 ug/ml) | 20 | 1.4 | 1.3 | 5.3 | 2.1 | no binding (tested: 100 nM) | no binding (tested: 100 nM)
B9 | no binding (tested: 1 ug/ml) | no binding (tested: 1 ug/ml) | no binding (tested: 1 ug/ml) | 7.47 | 1 | 1.1 | 2.1 | 2.6 | no binding (tested: 100 nM) | no binding (tested: 100 nM)
